Assay results reported in CN113773389A.

Biological target: T1, 人胸苷激酶1(TK1) (human) (UniProt P04183)
T1 sequence (looked up): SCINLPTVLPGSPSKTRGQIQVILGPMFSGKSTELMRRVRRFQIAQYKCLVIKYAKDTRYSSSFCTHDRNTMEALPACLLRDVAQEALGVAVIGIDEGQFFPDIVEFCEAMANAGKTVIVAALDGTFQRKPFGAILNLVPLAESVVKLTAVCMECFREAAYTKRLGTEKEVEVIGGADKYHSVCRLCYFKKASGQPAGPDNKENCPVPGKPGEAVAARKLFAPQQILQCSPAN
Assay: cell-based or functional assay

B1: 鼠抗人胸苷激酶1-IgG单克隆抗体(SSTK小鼠杂交瘤细胞株057M) (antibody, V domains shown)
VH: EVKLVESGGGLAQPGGSLRLSCATSGFTFSDYYMNWVRQPPGKAFEWLGFIRNKEYGNTAEYNPSLKGRFTISRDDSQSILYLQMNTLRVEDSAIYYCARDGAFDYWGQGTSLTVSS
VL: DIVMTQSPASLAVSLGQRATISCRASKSVSTSGYSYMHWNQQKPGQPPKLLIYLASNLESGVPARFSGSGSGTDFTLNIHPVEEEDAATYYCQESREFPTVGGGTNLEIK
肿瘤细胞凋亡频率 (Annexin V-FITC/PI), KATO-Ⅲ, 10μg/ml antibody, 72 h: 3.49 倍 | 肿瘤细胞凋亡频率 (Annexin V-FITC/PI), KATO-Ⅲ(STEM), 10μg/ml antibody, 72 h: 2.59 倍 | 肿瘤细胞凋亡频率 (Annexin V-FITC/PI), NCI-N87, 10μg/ml antibody, 72 h: 1.46 倍 | 肿瘤细胞凋亡频率 (Annexin V-FITC/PI), NCI-N87(STEM), 10μg/ml antibody, 72 h: 2.21 倍 | 肿瘤细胞生存活力 (CCK-8), KATO-Ⅲ, 100μg/ml antibody, 72 h: 56.3% | 肿瘤细胞生存活力 (CCK-8), KATO-Ⅲ(STEM), 100μg/ml antibody, 72 h: 66.6% | 肿瘤细胞生存活力 (CCK-8), NCI-N87, 100μg/mL antibody, 72 h: 85% | 肿瘤细胞生存活力 (CCK-8), NCI-N87(STEM), 100μg/mL antibody, 72 h: 66.6%
